{"source": "IntAct's records for PubMed 12445118", "parents": {"B1": {"name": "Coronatine-insensitive protein 1 (Arabidopsis thaliana (Mouse-ear cress)), O04197 (parent)", "chain": "MEDPDIKRCKLSCVATVDDVIEQVMTYITDPKDRDSASLVCRRWFKIDSETREHVTMALCYTATPDRLSRRFPNLRSLKLKGKPRAAMFNLIPENWGGYVTPWVTEISNNLRQLKSVHFRRMIVSDLDLDRLAKARADDLETLKLDKCSGFTTDGLLSIVTHCRKIKTLLMEESSFSEKDGKWLHELAQHNTSLEVLNFYMTEFAKISPKDLETIARNCRSLVSVKVGDFEILELVGFFKAAANLEEFCGGSLNEDIGMPEKYMNLVFPRKLCRLGLSYMGPNEMPILFPFAAQIRKLDLLYALLETEDHCTLIQKCPNLEVLETRNVIGDRGLEVLAQYCKQLKRLRIERGADEQGMEDEEGLVSQRGLIALAQGCQELEYMAVYVSDITNESLESIGTYLKNLCDFRLVLLDREERITDLPLDNGVRSLLIGCKKLRRFAFYLRQGGLTDLGLSYIGQYSPNVRWMLLGYVGESDEGLMEFSRGCPNLQKLEMRGCCFSERAIAAAVTKLPSLRYLWVQGYRASMTGQDLMQMARPYWNIELIPSRRVPEVNQQGEIREMEHPAHILAYYSLAGQRTDCPTTVRVLKEPI", "partner": "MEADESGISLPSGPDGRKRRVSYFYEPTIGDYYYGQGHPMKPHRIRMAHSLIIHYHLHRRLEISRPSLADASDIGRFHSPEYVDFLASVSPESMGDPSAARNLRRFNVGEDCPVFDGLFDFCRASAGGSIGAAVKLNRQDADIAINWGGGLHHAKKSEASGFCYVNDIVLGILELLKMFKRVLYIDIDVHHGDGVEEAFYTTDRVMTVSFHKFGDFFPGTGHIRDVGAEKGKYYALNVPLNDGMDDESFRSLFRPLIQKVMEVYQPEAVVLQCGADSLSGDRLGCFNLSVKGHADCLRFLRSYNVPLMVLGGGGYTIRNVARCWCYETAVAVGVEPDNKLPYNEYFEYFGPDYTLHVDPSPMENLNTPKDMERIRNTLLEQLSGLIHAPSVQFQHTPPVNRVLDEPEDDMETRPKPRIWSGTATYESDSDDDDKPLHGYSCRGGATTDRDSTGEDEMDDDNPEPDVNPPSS"}, "B2": {"name": "Coronatine-insensitive protein 1 (Arabidopsis thaliana (Mouse-ear cress)), O04197 (parent)", "chain": "B1 chain"}}}
{"variants_of": "B1", "settings": "with hda6_arath HDA6, Q9FML2"}
{"variant": "MEDPDIKRCKLSCVATVDDVIEQVMTYITDPKDRDSASLVCRRWFKIDSETREHVTMALCYTATPDRLSRRFPNLRSLKLKGKPRAAMFNLIPENWGGYVTPWVTEISNNLRQLKSVHFRRMIVSDLDLDRLAKARADDLETLKLDKCSGFTTDGLLSIVTHCRKIKTLLMEESSFSEKDGKWLHELAQHNTSLEVLNFYMTEFAKISPKDLETIARNCRSLVSVKVGDFEILELVGFFKAAANFEEFCGGSLNEDIGMPEKYMNLVFPRKLCRLGLSYMGPNEMPILFPFAAQIRKLDLLYALLETEDHCTLIQKCPNLEVLETRNVIGDRGLEVLAQYCKQLKRLRIERGADEQGMEDEEGLVSQRGLIALAQGCQELEYMAVYVSDITNESLESIGTYLKNLCDFRLVLLDREERITDLPLDNGVRSLLIGCKKLRRFAFYLRQGGLTDLGLSYIGQYSPNVRWMLLGYVGESDEGLMEFSRGCPNLQKLEMRGCCFSERAIAAAVTKLPSLRYLWVQGYRASMTGQDLMQMARPYWNIELIPSRRVPEVNQQGEIREMEHPAHILAYYSLAGQRTDCPTTVRVLKEPI", "note": "[L245F]", "effect of a mutation on the interaction": "decreasing interaction"}
{"variant": "MEDPDIKRCKLSCVATVDDVIEQVMTYITDPKDRDSASLVCRRAFKIDSETREHVTMALCYTATPDRLSRRFPNLRSLKLKGKPRAAMFNLIPENWGGYVTPWVTEISNNLRQLKSVHFRRMIVSDLDLDRLAKARADDLETLKLDKCSGFTTDGLLSIVTHCRKIKTLLMEESSFSEKDGKWLHELAQHNTSLEVLNFYMTEFAKISPKDLETIARNCRSLVSVKVGDFEILELVGFFKAAANLEEFCGGSLNEDIGMPEKYMNLVFPRKLCRLGLSYMGPNEMPILFPFAAQIRKLDLLYALLETEDHCTLIQKCPNLEVLETRNVIGDRGLEVLAQYCKQLKRLRIERGADEQGMEDEEGLVSQRGLIALAQGCQELEYMAVYVSDITNESLESIGTYLKNLCDFRLVLLDREERITDLPLDNGVRSLLIGCKKLRRFAFYLRQGGLTDLGLSYIGQYSPNVRWMLLGYVGESDEGLMEFSRGCPNLQKLEMRGCCFSERAIAAAVTKLPSLRYLWVQGYRASMTGQDLMQMARPYWNIELIPSRRVPEVNQQGEIREMEHPAHILAYYSLAGQRTDCPTTVRVLKEPI", "note": "[W44A]", "effect of a mutation on the interaction": "decreasing interaction"}
{"variants_of": "B2", "settings": "with rbs3b_arath RBCS-3B"}
{"variant": "MEDPDIKRCKLSCVATVDDVIEQVMTYITDPKDRDSASLVCRRWFKIDSETREHVTMALCYTATPDRLSRRFPNLRSLKLKGKPRAAMFNLIPENWGGYVTPWVTEISNNLRQLKSVHFRRMIVSDLDLDRLAKARADDLETLKLDKCSGFTTDGLLSIVTHCRKIKTLLMEESSFSEKDGKWLHELAQHNTSLEVLNFYMTEFAKISPKDLETIARNCRSLVSVKVGDFEILELVGFFKAAANFEEFCGGSLNEDIGMPEKYMNLVFPRKLCRLGLSYMGPNEMPILFPFAAQIRKLDLLYALLETEDHCTLIQKCPNLEVLETRNVIGDRGLEVLAQYCKQLKRLRIERGADEQGMEDEEGLVSQRGLIALAQGCQELEYMAVYVSDITNESLESIGTYLKNLCDFRLVLLDREERITDLPLDNGVRSLLIGCKKLRRFAFYLRQGGLTDLGLSYIGQYSPNVRWMLLGYVGESDEGLMEFSRGCPNLQKLEMRGCCFSERAIAAAVTKLPSLRYLWVQGYRASMTGQDLMQMARPYWNIELIPSRRVPEVNQQGEIREMEHPAHILAYYSLAGQRTDCPTTVRVLKEPI", "note": "[L245F]", "effect of a mutation on the interaction": "decreasing interaction"}
{"variant": "MEDPDIKRCKLSCVATVDDVIEQVMTYITDPKDRDSASLVCRRAFKIDSETREHVTMALCYTATPDRLSRRFPNLRSLKLKGKPRAAMFNLIPENWGGYVTPWVTEISNNLRQLKSVHFRRMIVSDLDLDRLAKARADDLETLKLDKCSGFTTDGLLSIVTHCRKIKTLLMEESSFSEKDGKWLHELAQHNTSLEVLNFYMTEFAKISPKDLETIARNCRSLVSVKVGDFEILELVGFFKAAANLEEFCGGSLNEDIGMPEKYMNLVFPRKLCRLGLSYMGPNEMPILFPFAAQIRKLDLLYALLETEDHCTLIQKCPNLEVLETRNVIGDRGLEVLAQYCKQLKRLRIERGADEQGMEDEEGLVSQRGLIALAQGCQELEYMAVYVSDITNESLESIGTYLKNLCDFRLVLLDREERITDLPLDNGVRSLLIGCKKLRRFAFYLRQGGLTDLGLSYIGQYSPNVRWMLLGYVGESDEGLMEFSRGCPNLQKLEMRGCCFSERAIAAAVTKLPSLRYLWVQGYRASMTGQDLMQMARPYWNIELIPSRRVPEVNQQGEIREMEHPAHILAYYSLAGQRTDCPTTVRVLKEPI", "note": "[W44A]", "effect of a mutation on the interaction": "decreasing interaction"}
{"variants_of": "B2", "settings": "with skp1a_arath SKP1A"}
{"variant": "MEDPDIKRCKLSCVATVDDVIEQVMTYITDPKDRDSASLVCRRAFKIDSETREHVTMALCYTATPDRLSRRFPNLRSLKLKGKPRAAMFNLIPENWGGYVTPWVTEISNNLRQLKSVHFRRMIVSDLDLDRLAKARADDLETLKLDKCSGFTTDGLLSIVTHCRKIKTLLMEESSFSEKDGKWLHELAQHNTSLEVLNFYMTEFAKISPKDLETIARNCRSLVSVKVGDFEILELVGFFKAAANLEEFCGGSLNEDIGMPEKYMNLVFPRKLCRLGLSYMGPNEMPILFPFAAQIRKLDLLYALLETEDHCTLIQKCPNLEVLETRNVIGDRGLEVLAQYCKQLKRLRIERGADEQGMEDEEGLVSQRGLIALAQGCQELEYMAVYVSDITNESLESIGTYLKNLCDFRLVLLDREERITDLPLDNGVRSLLIGCKKLRRFAFYLRQGGLTDLGLSYIGQYSPNVRWMLLGYVGESDEGLMEFSRGCPNLQKLEMRGCCFSERAIAAAVTKLPSLRYLWVQGYRASMTGQDLMQMARPYWNIELIPSRRVPEVNQQGEIREMEHPAHILAYYSLAGQRTDCPTTVRVLKEPI", "note": "[W44A]", "effect of a mutation on the interaction": "decreasing interaction"}
{"variants_of": "B2", "settings": "with skp1b_arath SKP1B"}
{"variant": "MEDPDIKRCKLSCVATVDDVIEQVMTYITDPKDRDSASLVCRRAFKIDSETREHVTMALCYTATPDRLSRRFPNLRSLKLKGKPRAAMFNLIPENWGGYVTPWVTEISNNLRQLKSVHFRRMIVSDLDLDRLAKARADDLETLKLDKCSGFTTDGLLSIVTHCRKIKTLLMEESSFSEKDGKWLHELAQHNTSLEVLNFYMTEFAKISPKDLETIARNCRSLVSVKVGDFEILELVGFFKAAANLEEFCGGSLNEDIGMPEKYMNLVFPRKLCRLGLSYMGPNEMPILFPFAAQIRKLDLLYALLETEDHCTLIQKCPNLEVLETRNVIGDRGLEVLAQYCKQLKRLRIERGADEQGMEDEEGLVSQRGLIALAQGCQELEYMAVYVSDITNESLESIGTYLKNLCDFRLVLLDREERITDLPLDNGVRSLLIGCKKLRRFAFYLRQGGLTDLGLSYIGQYSPNVRWMLLGYVGESDEGLMEFSRGCPNLQKLEMRGCCFSERAIAAAVTKLPSLRYLWVQGYRASMTGQDLMQMARPYWNIELIPSRRVPEVNQQGEIREMEHPAHILAYYSLAGQRTDCPTTVRVLKEPI", "note": "[W44A]", "effect of a mutation on the interaction": "decreasing interaction"}
